Measured values reported in US20150044250A1 (INTERVET, published 2015).

Columns and labels:
[1] = target: the molecule itself; assay: SEC-UV (self-association)
[2] = target: the molecule itself; assay: SEC-MALS (self-association)

B1: 3mCDTa1 (CDTa minus the signal peptide with R302A, E385A and E387D) (enzyme)
chain: MVCNTTYKAPIERPEDFLKDKEKAKEWERKEAERIEQKLERSEKEALESYKKDSVEISKYSQTRNYFYDYQIEANSREKEYKELRNAISKNKIDKPMYVYYFESPEKFAFNKVIRTENQNEISLEKFNEFKETIQNKLFKQDGFKDISLYEPGKGDEKPTPLLMHLKLPRNTGMLPYTNTNNVSTLIEQGYSIKIDKIVRIVIDGKHYIKAEASVVSSLDFKDDVSKGDSWGKANYNDWSNKLTPNELADVNDYMRGGYTAINNYLISNGPVNNPNPELDSKITNIENALKREPIPTNLTVYARSGPQEFGLTLTSPEYDFNKLENIDAFKSKWEGQALSYPNFISTSIGSVNMSAFAKRKIVLRITIPKGSPGAYLSAIPGYAGAYDVLLNHGSKFKINKIDSYKDGTITKLIVDATLIP
Question: Does B1 bind [1]?
Answer: binds

B2: 4mCDTa8 (CDTa minus the signal peptide with S345F, E385Q, E387Q and C2A) (enzyme)
chain: MVANTTYKAPIERPEDFLKDKEKAKEWERKEAERIEQKLERSEKEALESYKKDSVEISKYSQTRNYFYDYQIEANSREKEYKELRNAISKNKIDKPMYVYYFESPEKFAFNKVIRTENQNEISLEKFNEFKETIQNKLFKQDGFKDISLYEPGKGDEKPTPLLMHLKLPRNTGMLPYTNTNNVSTLIEQGYSIKIDKIVRIVIDGKHYIKAEASVVSSLDFKDDVSKGDSWGKANYNDWSNKLTPNELADVNDYMRGGYTAINNYLISNGPVNNPNPELDSKITNIENALKREPIPTNLTVYRRSGPQEFGLTLTSPEYDFNKLENIDAFKSKWEGQALSYPNFIFTSIGSVNMSAFAKRKIVLRITIPKGSPGAYLSAIPGYAGQYQVLLNHGSKFKINKIDSYKDGTITKLIVDATLIP
Question: Does B2 bind [2]?
Answer: no binding
